B1: WRTG18616-encoded anti-mPD-1 scFv, dimeric fraction (scFv, part only; not given: glycine-serine linker, V domains shown)
VH: EVRLLESGGGLVKPEGSLKLSCVASGFTFSDYFMSWVRQAPGKGLEWVAHIYTKSYNYATYYSGSVKGRFTISRDDSRSMVYLQMNNLRTEDTATYYCTRDGSGYPSLDFWGQGTQVTVSS
VL: YELTQPPSASVNVGETVKITCSGDQLPKYFADWFHQRSDQTILQVIYDDNKRPSGIPERISGSSSGTTATLTIRDVRAEDEGDYYCFSGYVDSDSKLYVFGSGTQLTVLHHHHHH
modifications: Dimer of two identical scFv polypeptides (first gel-filtration peak); one copy is given. VH and VL are joined in the real chain by a Gly-Ser linker of undisclosed letters and are given here as two chains.

Columns and labels:
[1] = target: cell-surface mouse PD-1 on EL4 and RMA T lymphoma cells (mouse) (UniProt Q02242); experiment: flow cytometry competition on EL4 cells against mPD-L1-hFc at 2 µg/ml
[2] = target: mouse PD-1 (coated in the competition ELISA) (mouse) (UniProt Q02242); experiment: competition ELISA, blocks mouse PD-L1 biot on coated mouse PD-1; dimeric fraction more efficient than monomeric

Molecule	IC50 [1] [µg/mL]	difference in EC50 against the monomeric scFv [2] [log]
commercially available anti-mPD-1 antibody J43 (BioXCell)	1.6	–
B1	–	1

From patent publication US20170157188A1
